Numbering of substitutions follows the chain as printed.
B1: AX9 IgG2 (antibody)
heavy: EVQLLESGGGLVQPGGSLRLSCKASGYTFSSYWMHWVRQAPGKGLEWIGRIDPYNGGTKYNEKFKGKATISRDNSKNTLYLQMNSLRAEDTAVYYCARYGYYLGSYAMDYWGQGTLVTVSSASTKGPSVFPLAPCSRSTSESTAALGCLVKDYFPEPVTVSWNSGALTSGVHTFPAVLQSSGLYSLSSVVTVPSSNFGTQTYTCNVDHKPSNTKVDKTVERKCCVECPPCPAPPVAGPSVFLFPPKPKDTLMISRTPEVTCVVVDVSHEDPEVQFNWYVDGVEVHNAKTKPREEQFNSTFRVVSVLTVVHQDWLNGKEYKCKVSNKGLPAPIEKTISKTKGQPREPQVYTLPPSREEMTKNQVSLTCLVKGFYPSDIAVEWESNGQPENNYKTTPPMLDSDGSFFLYSKLTVDKSRWQQGNVFSCSVMHEALHNHYTQKSLSLSPGK
light: DIQMTQSPSSLSASVGDRVTITCRASQDVSKYLAWYQQKPGKAPKLLIYAASSLQSGVPSRFSGSGSGTDFTLTISSLQPEDFATYYCQVYDSSPNAYVFGGGTKVEIKRTVAAPSVFIFPPSDEQLKSGTASVVCLLNNFYPREAKVQWKVDNALQSGNSQESVTEQDSKDSTYSLSSTLTLSKADYEKHKVYACEVTHQGLSSPVTKSFNRGEC
B2: AX1 IgG2 (antibody)
heavy: EVQLLESGGGLVQPGGSLRLSCKASGFTFTSYYMHWVRQAPGKGLEWIGRINPDSGSTKYNEKFKGRATISRDNSKNTLYLQMNSLRAEDTAVYYCARGGRLSWDFDVWGQGTLVTVSSASTKGPSVFPLAPCSRSTSESTAALGCLVKDYFPEPVTVSWNSGALTSGVHTFPAVLQSSGLYSLSSVVTVPSSNFGTQTYTCNVDHKPSNTKVDKTVERKCCVECPPCPAPPVAGPSVFLFPPKPKDTLMISRTPEVTCVVVDVSHEDPEVQFNWYVDGVEVHNAKTKPREEQFNSTFRVVSVLTVVHQDWLNGKEYKCKVSNKGLPAPIEKTISKTKGQPREPQVYTLPPSREEMTKNQVSLTCLVKGFYPSDIAVEWESNGQPENNYKTTPPMLDSDGSFFLYSKLTVDKSRWQQGNVFSCSVMHEALHNHYTQKSLSLSPGK
light: B1 light with V29I, K31R, Q89A, V90A, S93Y, P95L, N96G, A97G, G102D
notes: Made in HEK293 cells or in glycoengineered Pichia
B3: AX189 IgG2 (antibody)
heavy: B1 heavy
light: B1 light with K31R, A34T, V90A, S93Y, P95L, N96S, A97G
notes: the leaderless entry is used
B4: AX1DG IgG2 (antibody, V domains shown)
VH: EVQLLESGGGLVQPGGSLRLSCKASGFTFTSYYMHWVRQAPGKGLEWIGRINPDSGSTKYNEKFKGRATISRDNSKNTLYLQMNSLRAEDTAVYYCARGGRLSWDFDVWGQGTLVTVSS
VL: DIQMTQSPSSLSASVGDRVTITCRASQDISRYLAWYQQKPGKAPKLLIYAASSLQSGVPSRFSGSGSGTDFTLTISSLQPEDFATYYCAAYDYSLGGYVFGGGTKVEIK
notes: IgG2; also called AXIDG
B5: AX9 IgG1 (antibody, V domains shown)
VH: EVQLLESGGGLVQPGGSLRLSCKASGYTFSSYWMHWVRQAPGKGLEWIGRIDPYNGGTKYNEKFKGKATISRDNSKNTLYLQMNSLRAEDTAVYYCARYGYYLGSYAMDYWGQGTLVTVSS
VL: B4 VL with I29V, R31K, A89Q, A90V, Y93S, L95P, G96N, G97A
B6: AX132 IgG2 (antibody, V domains shown)
VH: EVQLLESGGGLVQPGGSLRLSCKASGYTFSSYGMYWVRQAPGKGLEWIGWIDPGSGGTKYNEKFKGKATISRDNSKNTLYLQMNSLRAEDTAVYYCARERYGYYFDYWGQGTLVTVSS
VL: EIVLTQSPATLSLSPGERATITCRASQYVGSYLNWYQQKPGQAPRLLIYDASNRATGIPARFSGSGSGTDFTLTISSLEPEDFAVYYCQVWDSSPPVVFGGGTKVEIK

Experiments:
rhesus PCSK9 (rhesus) [1] = assay: cell-based or functional assay
human FcRn = target: T1, human FcRn (human, UniProt P55899 24-297; P61769 21-119, limits assumed); assay: Biacore; human FcRn immobilised, 100 nM mAb bound at pH 6.0, read 5 s into dissociation at pH 7.3
T1 construct: Beta-2-microglobulin is not mentioned for the purified protein; also called human FeRn
Description: The neutral pH dissociation of mAbs from human FeRn was measured by SPR using a Biacore T-100 instrument. Briefly, purified FeRn protein was immobilized onto a Biacore CM5 biosensor chip and PBSP (50 mM NaPO4, 150 mM NaCl and 0.05% (v/v) Surfactant 20) pH 7.3 was used as running buffer. The mAbs were diluted with PBSP pH 6.0 to 100 nM, allowed to bind FcRn for 3 minutes to reach equilibrium and followed by 1 minute of dissociation in pH 7.3 running buffer. A report point (Stability) was inserted at 5 seconds after the end of mAb binding and the “% bound” was calculated as RUStability/RUBinding (%).

human PCSK9 [2] = target: T2, human PCSK9 (human, UniProt Q8NBP7 31-692, limits assumed); assay: SPR (Biacore); IgG captured on anti-human IgG, PCSK9 injected
T2 construct: It carried an AlexaFluor647 label in the TR-FRET assay only; also called hPCSK9; wild type human PCSK9
Description: (§1) The affinities of those IgG molecules were also measured by Biacore assay. Briefly, anti-human IgG monoclonal antibody form Human Antibody Capture Kit provided by Biacore was immobilized on CM5 chips at a level of 8000 to 10000 RU. […] After each round injection, the sensor chip surface was regenerated by 30 second injection of 3M Magnesium Chloride.

rhesus PCSK9 (rhesus) [3] = assay: as above
human PCSK9 [4] = target: T2, human PCSK9; assay: TR-FRET; antibody titrated against 10 nM AF647-PCSK9 and about 4 nM Eu-LDLR ectodomain
Description: After at least 90 minutes of equilibration, samples were read in a Rubystar reader (BMG Corp.) using 20 flashes per well, a 50 μsec integration delay, and a 200 μsec total integration time.

human PCSK9 [5] = target: T2, human PCSK9; assay: cell-based or functional assay
mouse PCSK9 = target: T3, mouse PCSK9 (mouse, UniProt Q80W65 35-694, limits assumed); assay: affinity table, IgG2 (Biacore)
T3 construct: also called Mouse PCSK9 9
Description: as §1

human PCSK9 [6] = target: T2, human PCSK9; assay: affinity table, IgG2 (Biacore)
Description: as §1

rat PCSK9 = target: T4, rat PCSK9 (rat, UniProt P59996 31-691, limits assumed); assay: affinity table, IgG2 (Biacore)
T4 construct: also called rPCSK9
Description: as §1

rhesus PCSK9 (rhesus) [7] = assay: affinity table, IgG2 (Biacore)
human PCSK9 [8] = target: T2, human PCSK9; assay: affinity table, IgG2 (Biacore); remark: listed apart in the source
Description: as §1

rhesus PCSK9 = rhesus PCSK9 (rhesus, UniProt A8T644 31-692 (Pan troglodytes entry), limits assumed); assay: cell-based or functional assay

T2 sequence (Q8NBP7 31-692 limits assumed): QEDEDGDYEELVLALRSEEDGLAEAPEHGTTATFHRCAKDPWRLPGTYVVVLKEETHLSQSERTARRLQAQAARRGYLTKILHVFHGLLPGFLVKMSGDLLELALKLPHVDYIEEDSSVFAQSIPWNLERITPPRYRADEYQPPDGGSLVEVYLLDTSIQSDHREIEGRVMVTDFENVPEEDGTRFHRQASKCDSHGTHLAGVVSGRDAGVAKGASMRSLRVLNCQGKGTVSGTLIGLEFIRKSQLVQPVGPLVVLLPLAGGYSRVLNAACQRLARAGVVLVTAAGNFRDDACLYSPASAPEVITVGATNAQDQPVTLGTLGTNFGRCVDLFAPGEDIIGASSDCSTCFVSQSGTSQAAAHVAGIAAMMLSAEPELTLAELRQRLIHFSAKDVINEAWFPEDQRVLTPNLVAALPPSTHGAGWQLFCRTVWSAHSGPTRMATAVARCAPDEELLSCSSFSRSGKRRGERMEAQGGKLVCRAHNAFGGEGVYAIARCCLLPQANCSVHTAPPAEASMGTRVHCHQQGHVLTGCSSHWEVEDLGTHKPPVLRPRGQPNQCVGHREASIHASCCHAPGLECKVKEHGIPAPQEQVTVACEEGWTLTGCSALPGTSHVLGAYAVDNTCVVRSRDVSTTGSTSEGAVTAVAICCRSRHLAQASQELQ
T4 sequence (P59996 31-691 limits assumed): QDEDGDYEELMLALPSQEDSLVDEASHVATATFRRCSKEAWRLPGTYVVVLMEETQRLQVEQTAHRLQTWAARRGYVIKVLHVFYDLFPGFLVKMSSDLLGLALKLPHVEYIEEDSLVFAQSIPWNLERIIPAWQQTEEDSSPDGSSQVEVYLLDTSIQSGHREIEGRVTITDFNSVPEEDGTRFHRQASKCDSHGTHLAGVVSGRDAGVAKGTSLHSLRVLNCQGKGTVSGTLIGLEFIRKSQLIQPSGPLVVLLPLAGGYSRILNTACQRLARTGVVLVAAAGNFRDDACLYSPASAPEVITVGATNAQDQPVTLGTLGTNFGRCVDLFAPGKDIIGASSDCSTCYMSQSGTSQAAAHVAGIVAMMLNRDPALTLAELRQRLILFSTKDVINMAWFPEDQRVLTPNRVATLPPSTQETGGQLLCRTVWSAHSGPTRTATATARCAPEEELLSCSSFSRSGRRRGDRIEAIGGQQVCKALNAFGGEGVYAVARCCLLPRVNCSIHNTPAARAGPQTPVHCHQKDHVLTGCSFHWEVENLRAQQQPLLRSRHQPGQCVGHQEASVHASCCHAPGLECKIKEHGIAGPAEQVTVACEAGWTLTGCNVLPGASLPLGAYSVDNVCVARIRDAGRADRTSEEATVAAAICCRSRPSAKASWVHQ
T1 sequence (P55899 24-297 limits assumed, form in doubt, chain 1 of 2): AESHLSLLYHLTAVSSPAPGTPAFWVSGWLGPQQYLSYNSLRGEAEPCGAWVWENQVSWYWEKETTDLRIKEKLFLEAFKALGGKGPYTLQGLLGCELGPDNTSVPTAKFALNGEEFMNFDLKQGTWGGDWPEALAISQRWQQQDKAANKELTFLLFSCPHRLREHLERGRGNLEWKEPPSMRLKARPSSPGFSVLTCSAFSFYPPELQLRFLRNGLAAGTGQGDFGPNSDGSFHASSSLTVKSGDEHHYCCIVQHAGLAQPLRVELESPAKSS
T1 sequence (P61769 21-119 limits assumed, form in doubt, chain 2 of 2): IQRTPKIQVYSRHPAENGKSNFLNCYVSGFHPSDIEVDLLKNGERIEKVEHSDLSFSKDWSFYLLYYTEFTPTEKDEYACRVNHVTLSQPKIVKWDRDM
T3 sequence (Q80W65 35-694 limits assumed): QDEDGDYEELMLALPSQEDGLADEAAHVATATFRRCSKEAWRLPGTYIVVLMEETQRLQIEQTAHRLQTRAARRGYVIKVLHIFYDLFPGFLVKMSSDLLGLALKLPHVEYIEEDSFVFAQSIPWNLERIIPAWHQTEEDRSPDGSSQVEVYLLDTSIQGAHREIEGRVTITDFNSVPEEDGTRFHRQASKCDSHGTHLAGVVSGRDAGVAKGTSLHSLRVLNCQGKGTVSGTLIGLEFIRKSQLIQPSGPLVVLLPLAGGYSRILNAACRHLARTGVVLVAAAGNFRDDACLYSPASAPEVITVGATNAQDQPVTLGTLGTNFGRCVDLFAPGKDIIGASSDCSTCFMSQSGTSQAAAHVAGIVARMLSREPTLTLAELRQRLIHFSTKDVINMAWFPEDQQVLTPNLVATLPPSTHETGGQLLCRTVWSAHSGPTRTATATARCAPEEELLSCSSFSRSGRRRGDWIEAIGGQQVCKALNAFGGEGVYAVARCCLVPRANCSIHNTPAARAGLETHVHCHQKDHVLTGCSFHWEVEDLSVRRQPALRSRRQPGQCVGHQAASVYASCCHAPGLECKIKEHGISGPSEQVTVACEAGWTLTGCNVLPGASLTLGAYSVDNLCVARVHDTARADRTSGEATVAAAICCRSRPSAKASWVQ

Binder | IgG IC50 (nM), inhibition of PCSK9 on LDL uptake (Exopolar assay) (rhesus PCSK9 (rhesus) [1]) [nM] | % bound (RUStability/RUBinding) (human FcRn) [%] | Kd (human PCSK9 [2]) [nM] | Kd (rhesus PCSK9 (rhesus) [3]) [nM] | IC50 (human PCSK9 [4]) [nM] | IgG IC50 (nM), inhibition of PCSK9 on LDL uptake (Exopolar assay) (human PCSK9 [5]) [nM] | binding result (mouse PCSK9) | Kd (human PCSK9 [6]) [nM] | binding result (rat PCSK9) | Kd (rhesus PCSK9 (rhesus) [7]) [nM] | Kd (human PCSK9 [8]) [nM] | IgG IC50 (nM), inhibition of PCSK9 on LDL uptake (Exopolar assay) (rhesus PCSK9) [nM] | Kd (mouse PCSK9) [nM] | Kd (rat PCSK9) [nM]
B1 | 28.6 | 1 | 20.6 | 8.82 | 4.1 | 25.5 | no binding | 20.6 | no binding | 8.82 | – | – | – | –
B2 | 11.2 | 5 | 5.75 | 4.2 | 1 | 7 | no binding | 5.75 | no binding | 8.61 | 5.75 | – | – | –
B3 | 9 | 0.9 | 1.84 | 1.24 | 6.4 | 9.4 | – | 1.84 | – | 1.24 | – | – | – | –
B4 | – | – | 4.61 | 3.6 | – | 7.4 | no binding | 4.61 | no binding | 8.1 | 4.61 | – | – | –
B5 | – | – | – | – | – | 10.7 | – | – | – | – | – | 30.3 | – | –
B6 | – | – | – | – | – | – | – | 6.16 | – | – | – | – | 2.76 | 100

— patent US20120231005A1 (Merck Sharp & Dohme, published 2012)
